Source: the supplement of paper PMC7877785
± gives the uncertainty stated by the source.

Test: self-splicing fitness, log relative to wild type (ln ratio); higher = more splicing; Tetrahymena group I intron in knt gene, E. coli kanamycin selection, DiMSum; sequences stand for … in CUCUCU…GGAGGGAAAAGUUAUCAGGCAUGCACCUGGUAGCUAGUCUUUAAACCAAUAGAUUGCAUCGGUUUAAAAGGCAAGACCGUCAAAUUGCGGGAAAGGGGUCAACAGCCGUUCAGUACCAAGUCUCAGGGGAAACUUUGAGAUGGCCUUGCAAAGGGUAUGGUAAUAAGCUGACGGACAUGGUCCUAACCACGCAGCCAAGUCCUAAGUCAACAGAUCUUCUGUUGAUAUGGAUGCAGUUCACAGACUAAAUGUCGGUCGGGGAAGAUGUAUUCUUCUCAUAAGAUAUAGUCGGACCUCUCCUUAAUGGGAGCUAGCGGAUGAAGUGAUGCAACACUGGAGCCGCUGGGAACUAAUUUGUAUGCGAAAGUAUAUUGAUUAGUUUUGGAGUACUCGUGGUCG
In short: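 Fitness was computed with DiMSum as the error-weighted combination of replicate fold changes, kanamycin versus none, each normalised to wild type. The library randomised all eight intron nucleotides of the P1ex region, with the intron placed in the knt kanamycin-resistance gene on pET-22b(+) in E. coli BL21(DE3). Six replicate transformations were grown overnight at 37°C or 30°C on LB agar with or without 25 μg/mL kanamycin, plus 100 μg/mL carbenicillin, 50 μM IPTG and 0.2% rhamnose. Pooled colonies were amplicon-sequenced on an Illumina HiSeq 2500.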

Sequence	self-splicing fitness (ln) (30 °C)	self-splicing fitness (ln) (37 °C)
AGCAAGCAAUAUUACGUAGG	-2.75 ± 0.1	-2.1 ± 0.12
AGCAAGCAAUAUUACGUCCG	-0.909 ± 0.12	-0.462 ± 0.14
AGCAAGCAAUAUUACGUUAA	-3.3 ± 0.17	-1.68 ± 0.1
AGCAAGCAAUAUUACGUUAC	-3.47 ± 0.23	-2.38 ± 0.21
AGCAAGCAAUAUUACGUUAG	-2.96 ± 0.17	-2.24 ± 0.22
AGCAAGCAAUAUUACGUUGG	-4.16 ± 0.14	-3.18 ± 0.17
AGCCAGCAAUAUUACGAAGA	-1.84 ± 0.26	-1.46 ± 0.2
AGCCAGCAAUAUUACGACCA	-1.61 ± 0.14	-2.81 ± 0.3
AGCCAGCAAUAUUACGAGGA	-3.35 ± 0.34	-2.17 ± 0.27
AGCCAGCAAUAUUACGAGGU	-3.51 ± 0.23	-1.93 ± 0.21
AGCCAGCAAUAUUACGAUCC	-2.27 ± 0.15	-1.02 ± 0.19
AGCCAGCAAUAUUACGCCCG	-1.94 ± 0.47	-1.61 ± 0.36
AGCCAGCAAUAUUACGCGAA	-0.797 ± 0.26	-2.79 ± 0.38
AGCCAGCAAUAUUACGCGCU	-3.07 ± 0.24	-2.15 ± 0.25
AGCCAGCAAUAUUACGCUCG	-1.78 ± 0.18	-1.58 ± 0.18
AGCCAGCAAUAUUACGCUUA	-2.09 ± 0.11	-1.4 ± 0.093
AGCCAGCAAUAUUACGCUUU	-2.84 ± 0.089	-0.852 ± 0.086
AGCCAGCAAUAUUACGGCCC	–	-0.0646 ± 0.48
AGCCAGCAAUAUUACGGCGC	-1.51 ± 0.13	-0.844 ± 0.16
AGCCAGCAAUAUUACGGUCG	-0.387 ± 0.078	-0.328 ± 0.092
AGCCAGCAAUAUUACGUAAU	-1.71 ± 0.11	-0.608 ± 0.12
AGCCAGCAAUAUUACGUACU	-0.0754 ± 0.072	0.219 ± 0.086
AGCCAGCAAUAUUACGUAGA	-2.62 ± 0.1	-1.84 ± 0.15
AGCCAGCAAUAUUACGUCGA	-3.17 ± 0.17	-2.88 ± 0.18

Sequence	self-splicing fitness (ln) (30 °C)	self-splicing fitness (ln) (37 °C)
AGCCAGCAAUAUUACGUGCA	-0.689 ± 0.068	0.0293 ± 0.087
AGCCAGCAAUAUUACGUUAA	-2.44 ± 0.17	-2.59 ± 0.2
AGCCAGCAAUAUUACGUUGA	-3.31 ± 0.13	-2.04 ± 0.16
AGCCAGCAAUAUUACGUUUU	-3.78 ± 0.14	-2.06 ± 0.11
AGCGAGCAAUAUUACGACCG	-1.98 ± 0.23	-1.84 ± 0.32
AGCGAGCAAUAUUACGACGC	-1.92 ± 0.25	0.245 ± 0.2
AGCGAGCAAUAUUACGAGGA	-2.36 ± 0.15	-2.6 ± 0.22
AGCGAGCAAUAUUACGAGUU	-2.61 ± 0.19	-1.21 ± 0.18
AGCGAGCAAUAUUACGAUGU	-2.99 ± 0.19	-1.46 ± 0.18
AGCGAGCAAUAUUACGCUGG	-3.39 ± 0.28	-3.38 ± 0.42
AGCGAGCAAUAUUACGGCAA	-1.93 ± 0.13	-1.71 ± 0.15
AGCGAGCAAUAUUACGGCCU	-0.967 ± 0.17	-0.258 ± 0.19
AGCGAGCAAUAUUACGGCGA	-0.915 ± 0.22	-0.377 ± 0.27
AGCGAGCAAUAUUACGGGCG	-1.23 ± 0.08	-0.431 ± 0.099
AGCGAGCAAUAUUACGGUCA	-2.05 ± 0.12	-0.626 ± 0.11
AGCGAGCAAUAUUACGGUUG	-2.69 ± 0.24	-2.05 ± 0.21
AGCGAGCAAUAUUACGUGAU	-2.98 ± 0.21	-3.09 ± 0.35
AGCGAGCAAUAUUACGUGUA	-2.83 ± 0.12	-1.98 ± 0.13
AGCGAGCAAUAUUACGUGUG	-3.86 ± 0.22	-2.88 ± 0.17
AGCGAGCAAUAUUACGUGUU	-3.06 ± 0.16	-2.79 ± 0.26
AGCGAGCAAUAUUACGUUUG	-3.44 ± 0.2	-3.64 ± 0.31
AGCUAGCAAUAUUACGAAGU	-4.06 ± 0.32	-1.73 ± 0.26
AGCUAGCAAUAUUACGACAA	-1.68 ± 0.18	-1.34 ± 0.15
AGCUAGCAAUAUUACGAGCA	-1.16 ± 0.21	0.177 ± 0.17

Sequence	self-splicing fitness (ln) (30 °C)	self-splicing fitness (ln) (37 °C)
AGCUAGCAAUAUUACGAUAC	-3.44 ± 0.49	-1.59 ± 0.28
AGCUAGCAAUAUUACGAUAU	-0.87 ± 0.17	0.27 ± 0.11
AGCUAGCAAUAUUACGCAGU	-2.97 ± 0.19	-2.02 ± 0.26
AGCUAGCAAUAUUACGCGAU	-3 ± 0.31	-2.14 ± 0.22
AGCUAGCAAUAUUACGCGCC	-2.25 ± 0.23	-2.04 ± 0.29
AGCUAGCAAUAUUACGCGGG	-3.3 ± 0.15	-1.53 ± 0.14
AGCUAGCAAUAUUACGCUUU	-3.48 ± 0.25	-2.57 ± 0.23
AGCUAGCAAUAUUACGGAGG	-3.54 ± 0.16	-1.33 ± 0.14
AGCUAGCAAUAUUACGGCCC	-0.559 ± 0.2	0.0329 ± 0.35
AGCUAGCAAUAUUACGGCUA	-0.83 ± 0.14	-0.754 ± 0.15
AGCUAGCAAUAUUACGGCUG	-0.696 ± 0.11	-0.185 ± 0.14
AGCUAGCAAUAUUACGGUAU	-1.44 ± 0.08	-0.9 ± 0.1
AGCUAGCAAUAUUACGUACA	-2.25 ± 0.23	0.0781 ± 0.18
AGCUAGCAAUAUUACGUCAU	-2.65 ± 0.1	-1.54 ± 0.1
AGCUAGCAAUAUUACGUCGC	-3.1 ± 0.18	-2.77 ± 0.36
AGCUAGCAAUAUUACGUCGG	-2.97 ± 0.3	-1.32 ± 0.26
AGCUAGCAAUAUUACGUCUU	-0.517 ± 0.098	0.46 ± 0.14
AGCUAGCAAUAUUACGUGCG	-1.02 ± 0.066	-0.499 ± 0.091
AGCUAGCAAUAUUACGUGGG	-4.49 ± 0.2	-2.72 ± 0.15
AGCUAGCAAUAUUACGUUAA	-2.49 ± 0.21	-1.36 ± 0.14
AGCUAGCAAUAUUACGUUAU	-4.39 ± 0.32	-2.19 ± 0.17
AGGAAGCAAUAUUACGAAAC	-2.83 ± 0.38	–
AGGAAGCAAUAUUACGAAAU	-3.06 ± 0.2	-1.53 ± 0.18
AGGAAGCAAUAUUACGACGC	-0.0969 ± 0.13	-0.574 ± 0.14

Sequence	self-splicing fitness (ln) (30 °C)	self-splicing fitness (ln) (37 °C)
AGGAAGCAAUAUUACGACUA	0.0184 ± 0.094	-0.351 ± 0.12
AGGAAGCAAUAUUACGAGGC	-3.01 ± 0.3	-2.31 ± 0.34
AGGAAGCAAUAUUACGAUAU	-3.48 ± 0.19	-2.5 ± 0.12
AGGAAGCAAUAUUACGAUGC	-2.26 ± 0.17	-1.04 ± 0.22
AGGAAGCAAUAUUACGAUGG	-2.53 ± 0.16	-1.88 ± 0.21
AGGAAGCAAUAUUACGCAAA	-1.79 ± 0.14	-1.23 ± 0.14
AGGAAGCAAUAUUACGCAGU	-3.41 ± 0.15	-0.746 ± 0.095
AGGAAGCAAUAUUACGCCUA	-0.554 ± 0.12	-0.497 ± 0.14
AGGAAGCAAUAUUACGCGUG	-1.49 ± 0.072	-0.951 ± 0.092
AGGAAGCAAUAUUACGGACG	-0.899 ± 0.13	0.276 ± 0.14
AGGAAGCAAUAUUACGGCGG	-1.34 ± 0.085	-0.207 ± 0.11
AGGAAGCAAUAUUACGGGUU	-3.14 ± 0.15	-1.96 ± 0.15
AGGAAGCAAUAUUACGUAUG	-2.39 ± 0.14	-2.3 ± 0.16
AGGAAGCAAUAUUACGUGCU	-2.18 ± 0.17	-0.868 ± 0.16
AGGAAGCAAUAUUACGUGGU	-3.36 ± 0.15	-2.61 ± 0.25
AGGCAGCAAUAUUACGAACC	-0.0701 ± 0.18	-1.03 ± 0.2
AGGCAGCAAUAUUACGAUCU	0.0214 ± 0.086	0.2 ± 0.12
AGGCAGCAAUAUUACGCAAA	-1.43 ± 0.15	-1 ± 0.2
AGGCAGCAAUAUUACGCAAU	-2.26 ± 0.14	-1.76 ± 0.094
AGGCAGCAAUAUUACGCCCA	-0.718 ± 0.094	-0.205 ± 0.15
AGGCAGCAAUAUUACGCCUA	-1.98 ± 0.23	-0.0372 ± 0.14
AGGCAGCAAUAUUACGCGCG	-0.446 ± 0.12	-0.358 ± 0.14
AGGCAGCAAUAUUACGCGUG	-2.48 ± 0.13	-0.717 ± 0.11
